Assay results reported in US20230220007A1, “SETD7 EPIGENETIC MODULATORS” (Biorchestra Co., Ltd., priority 2020, published 2023).

B1: E356A: SETD7 substitution mutant at position 356 (protein)
chain: MDSDDEMVEEAVEGHLDDDGLPHGFCTVTYSSTDRFEGNFVHGEKNGRGKFFFFDGSTLEGYYVDDALQGQGVYTYEDGGVLQGTYVDGELNGPAQEYDTDGRLIFKGQYKDNIRHGVCWIYYPDGGSLVGEVNEDGEMTGEKIAYVYPDERTALYGKFIDGEMIEGKLATLMSTEEGRPHFELMPGNSVYHFDKSTSSCISTNALLPDPYESERVYVAESLISSAGEGLFSKVAVGPNTVMSFYNGVRITHQEVDSRDWALNGNTLSLDEETVIDVPEPYNHVSKYCASLGHKANHSFTPNCIYDMFVHPRFGPIKCIRTLRAVEADEELTVAYGYDHSPPGKSGPEAPEWYQVALKAFQATQQK
B2: Q361A: SETD7 substitution mutant at position 361 (protein)
chain: MDSDDEMVEEAVEGHLDDDGLPHGFCTVTYSSTDRFEGNFVHGEKNGRGKFFFFDGSTLEGYYVDDALQGQGVYTYEDGGVLQGTYVDGELNGPAQEYDTDGRLIFKGQYKDNIRHGVCWIYYPDGGSLVGEVNEDGEMTGEKIAYVYPDERTALYGKFIDGEMIEGKLATLMSTEEGRPHFELMPGNSVYHFDKSTSSCISTNALLPDPYESERVYVAESLISSAGEGLFSKVAVGPNTVMSFYNGVRITHQEVDSRDWALNGNTLSLDEETVIDVPEPYNHVSKYCASLGHKANHSFTPNCIYDMFVHPRFGPIKCIRTLRAVEADEELTVAYGYDHSPPGKSGPEAPEWYQVELKAFAATQQK
B3: Y305A: SETD7 mutant, Tyr305 mutated to alanine (phospho-disrupting mutation) (protein)
chain: MDSDDEMVEEAVEGHLDDDGLPHGFCTVTYSSTDRFEGNFVHGEKNGRGKFFFFDGSTLEGYYVDDALQGQGVYTYEDGGVLQGTYVDGELNGPAQEYDTDGRLIFKGQYKDNIRHGVCWIYYPDGGSLVGEVNEDGEMTGEKIAYVYPDERTALYGKFIDGEMIEGKLATLMSTEEGRPHFELMPGNSVYHFDKSTSSCISTNALLPDPYESERVYVAESLISSAGEGLFSKVAVGPNTVMSFYNGVRITHQEVDSRDWALNGNTLSLDEETVIDVPEPYNHVSKYCASLGHKANHSFTPNCIADMFVHPRFGPIKCIRTLRAVEADEELTVAYGYDHSPPGKSGPEAPEWYQVELKAFQATQQK
B4: K294A: SETD7 substitution mutant at position 294 (protein)
chain: MDSDDEMVEEAVEGHLDDDGLPHGFCTVTYSSTDRFEGNFVHGEKNGRGKFFFFDGSTLEGYYVDDALQGQGVYTYEDGGVLQGTYVDGELNGPAQEYDTDGRLIFKGQYKDNIRHGVCWIYYPDGGSLVGEVNEDGEMTGEKIAYVYPDERTALYGKFIDGEMIEGKLATLMSTEEGRPHFELMPGNSVYHFDKSTSSCISTNALLPDPYESERVYVAESLISSAGEGLFSKVAVGPNTVMSFYNGVRITHQEVDSRDWALNGNTLSLDEETVIDVPEPYNHVSKYCASLGHAANHSFTPNCIYDMFVHPRFGPIKCIRTLRAVEADEELTVAYGYDHSPPGKSGPEAPEWYQVELKAFQATQQK
B5: K366A: SETD7 substitution mutant at position 366 (protein)
chain: MDSDDEMVEEAVEGHLDDDGLPHGFCTVTYSSTDRFEGNFVHGEKNGRGKFFFFDGSTLEGYYVDDALQGQGVYTYEDGGVLQGTYVDGELNGPAQEYDTDGRLIFKGQYKDNIRHGVCWIYYPDGGSLVGEVNEDGEMTGEKIAYVYPDERTALYGKFIDGEMIEGKLATLMSTEEGRPHFELMPGNSVYHFDKSTSSCISTNALLPDPYESERVYVAESLISSAGEGLFSKVAVGPNTVMSFYNGVRITHQEVDSRDWALNGNTLSLDEETVIDVPEPYNHVSKYCASLGHKANHSFTPNCIYDMFVHPRFGPIKCIRTLRAVEADEELTVAYGYDHSPPGKSGPEAPEWYQVELKAFQATQQA
B6: S225A: SETD7 mutant, Ser225 mutated to alanine (phospho-disrupting mutation) (protein)
chain: MDSDDEMVEEAVEGHLDDDGLPHGFCTVTYSSTDRFEGNFVHGEKNGRGKFFFFDGSTLEGYYVDDALQGQGVYTYEDGGVLQGTYVDGELNGPAQEYDTDGRLIFKGQYKDNIRHGVCWIYYPDGGSLVGEVNEDGEMTGEKIAYVYPDERTALYGKFIDGEMIEGKLATLMSTEEGRPHFELMPGNSVYHFDKSTSSCISTNALLPDPYESERVYVAESLISAAGEGLFSKVAVGPNTVMSFYNGVRITHQEVDSRDWALNGNTLSLDEETVIDVPEPYNHVSKYCASLGHKANHSFTPNCIYDMFVHPRFGPIKCIRTLRAVEADEELTVAYGYDHSPPGKSGPEAPEWYQVELKAFQATQQK
B7: Q365A: SETD7 substitution mutant at position 365 (protein)
chain: MDSDDEMVEEAVEGHLDDDGLPHGFCTVTYSSTDRFEGNFVHGEKNGRGKFFFFDGSTLEGYYVDDALQGQGVYTYEDGGVLQGTYVDGELNGPAQEYDTDGRLIFKGQYKDNIRHGVCWIYYPDGGSLVGEVNEDGEMTGEKIAYVYPDERTALYGKFIDGEMIEGKLATLMSTEEGRPHFELMPGNSVYHFDKSTSSCISTNALLPDPYESERVYVAESLISSAGEGLFSKVAVGPNTVMSFYNGVRITHQEVDSRDWALNGNTLSLDEETVIDVPEPYNHVSKYCASLGHKANHSFTPNCIYDMFVHPRFGPIKCIRTLRAVEADEELTVAYGYDHSPPGKSGPEAPEWYQVELKAFQATQAK
B8: WT SETD7: wild type histone-lysine N-methyltransferase SETD7, full length (SEQ ID NO: 37) (protein)
chain: MDSDDEMVEEAVEGHLDDDGLPHGFCTVTYSSTDRFEGNFVHGEKNGRGKFFFFDGSTLEGYYVDDALQGQGVYTYEDGGVLQGTYVDGELNGPAQEYDTDGRLIFKGQYKDNIRHGVCWIYYPDGGSLVGEVNEDGEMTGEKIAYVYPDERTALYGKFIDGEMIEGKLATLMSTEEGRPHFELMPGNSVYHFDKSTSSCISTNALLPDPYESERVYVAESLISSAGEGLFSKVAVGPNTVMSFYNGVRITHQEVDSRDWALNGNTLSLDEETVIDVPEPYNHVSKYCASLGHKANHSFTPNCIYDMFVHPRFGPIKCIRTLRAVEADEELTVAYGYDHSPPGKSGPEAPEWYQVELKAFQATQQK
B9: S345: SETD7 mutant, Ser345 mutated to alanine (phospho-disrupting mutation) (protein, UniProt Q8WTS6 1-366, looked up, variant S345A)
Histone-lysine …: MDSDDEMVEEAVEGHLDDDGLPHGFCTVTYSSTDRFEGNFVHGEKNGRGKFFFFDGSTLEGYYVDDALQGQGVYTYEDGGVLQGTYVDGELNGPAQEYDTDGRLIFKGQYKDNIRHGVCWIYYPDGGSLVGEVNEDGEMTGEKIAYVYPDERTALYGKFIDGEMIEGKLATLMSTEEGRPHFELMPGNSVYHFDKSTSSCISTNALLPDPYESERVYVAESLISSAGEGLFSKVAVGPNTVMSFYNGVRITHQEVDSRDWALNGNTLSLDEETVIDVPEPYNHVSKYCASLGHKANHSFTPNCIYDMFVHPRFGPIKCIRTLRAVEADEELTVAYGYDHSPPGKAGPEAPEWYQVELKAFQATQQK
B10: K358A: SETD7 substitution mutant at position 358 (protein)
chain: MDSDDEMVEEAVEGHLDDDGLPHGFCTVTYSSTDRFEGNFVHGEKNGRGKFFFFDGSTLEGYYVDDALQGQGVYTYEDGGVLQGTYVDGELNGPAQEYDTDGRLIFKGQYKDNIRHGVCWIYYPDGGSLVGEVNEDGEMTGEKIAYVYPDERTALYGKFIDGEMIEGKLATLMSTEEGRPHFELMPGNSVYHFDKSTSSCISTNALLPDPYESERVYVAESLISSAGEGLFSKVAVGPNTVMSFYNGVRITHQEVDSRDWALNGNTLSLDEETVIDVPEPYNHVSKYCASLGHKANHSFTPNCIYDMFVHPRFGPIKCIRTLRAVEADEELTVAYGYDHSPPGKSGPEAPEWYQVELAAFQATQQK
B11: SETD7 T332E: SETD7-GFP mutant with phospho-mimicking substitution T332E (protein, UniProt Q8WTS6 1-366, looked up, variant T332E)
Histone-lysine …: MDSDDEMVEEAVEGHLDDDGLPHGFCTVTYSSTDRFEGNFVHGEKNGRGKFFFFDGSTLEGYYVDDALQGQGVYTYEDGGVLQGTYVDGELNGPAQEYDTDGRLIFKGQYKDNIRHGVCWIYYPDGGSLVGEVNEDGEMTGEKIAYVYPDERTALYGKFIDGEMIEGKLATLMSTEEGRPHFELMPGNSVYHFDKSTSSCISTNALLPDPYESERVYVAESLISSAGEGLFSKVAVGPNTVMSFYNGVRITHQEVDSRDWALNGNTLSLDEETVIDVPEPYNHVSKYCASLGHKANHSFTPNCIYDMFVHPRFGPIKCIRTLRAVEADEELEVAYGYDHSPPGKSGPEAPEWYQVELKAFQATQQK
modifications: GFP tag

Tests used:
histone = details: cited from earlier work; for monomethyl transferase activity: SETD7 substitution mutants
[1] = system: human retinal pigment epithelial cells (RPE); assay: Nuclear translocation of SETD7 alanine (phospho-disrupting) mutants in response to high glucose levels; format: cell-based; details: mutants expressed in human RPE cells; FIG. 3
From the text: To identify the potential role of phosphorylatable sites located in the C-terminal regions of SETD7 (FIG. 1), phosphorylatable serines, threonines and tyrosines at positions 225, 305, 332, 340, and 345 where mutated to alanine (phospho-disrupting mutations) and expressed in human retinal pigment epithelial cells (RPE). Nuclear translocation or lack thereof in response to high glucose levels was examined (FIG. 2).
SETD7 cellular distribution changed in response to changes in glucose levels for wild type SETD7 (WT) and SETD7 mutants comprising a S225A substitution or a Y305A substitutions.

[2] = system: human retinal pigment epithelial (RPE) cells; assay: Cellular distribution of SETD7-GFP mutants under low or high glucose (GFP fluorescence); format: cell-based; details: SETD7-GFP mutants in human RPE cells; low glucose and high glucose conditions; FIG. 4
Method: SETD7-GFP mutants with phospho-mimicking substitutions at positions 332, 340 and/or 345 were prepared. The phospho-mimicking substitutions were T332E, S340D, and/or S345D. The SETD7-GFP mutants were expressed in human retinal pigment epithelial (RPE) cells. The fluorescence intensity emitted from the GFP signal in the cells under high or low glucose condition was measured.

| Molecule | monomethyl transferase activity (histone) | nuclear translocation in response to changes in glucose [1] | other results |
| --- | --- | --- | --- |
| B1 | partial loss | – | – |
| B2 | partial loss | – | – |
| B3 | – | translocated normally to the nucleus | – |
| B4 | – | – | catalytic activity (e.g., monomethyl transferase activity) (histone): reduces |
| B5 | partial loss | – | – |
| B6 | – | translocated normally to the nucleus | – |
| B7 | partial loss | – | – |
| B8 | – | translocated normally to the nucleus | – |
| B9 | – | did not translocate to the nucleus | – |
| B10 | partial loss | – | – |
| B11 | – | – | translocation to the nucleus [2]: translocated to the nucleus |
